The text below walks through data of patent US20250388704A1 (Xencor, published 2025).

Assay [1] has as its target T1, CD28 antigen used for the affinity determinations (human, UniProt P10747 19-152, limits assumed).
T1 construct: Octet/BLI is described only for the bivalent mAbs
Description: CD28 binding affinity of the scFv arm (monovalent, scFv in 1+1 Fab-scFv-Fc bsAb, FIG. 20); method not stated.

Assay [2] deals with T2, human PSMA on the surface of prostate cancer cell lines (C42B / C42B-NLR, 22Rv1 / 22Rv1-NLR, PSMA-transfected … (human, UniProt Q04609 1-750)).
T2 construct: whole, on cells; also called Prostate Specific Membrane Antigen
Description: flow cytometry on C42B-NLR (PSMA hi) cells, 30 min at 37 degrees, detection with anti-human-Ig-FITC. (In flow cytometry, cells or beads pass a laser one at a time.)

For assay [3], the target named is T1, CD28 antigen used for the affinity …. Put plainly: Octet (BLI), apparent dissociation constant (KDapp) of the bivalent mAb for CD28.
Assay [4] concerns the target T2, human PSMA on the surface of prostate …. Put plainly: flow cytometry on 22Rv1-NLR (PSMA med) cells, 30 min at 37 degrees, detection with anti-human-Ig-FITC.
The target is the same in assay [5]. Description: binding to C4-2B (C42B, PSMA^hi) cells, MFI against concentration, least squares fit.
Assay [6] deals with T1, CD28 antigen used for the affinity …. Put plainly: CD28 binding affinity of the scFv arm; method not stated; assigned to XENP40470 by elimination.
Assay [7] has the same target. Description: CD28 binding affinity of the scFv arm, told in a figure legend; method not stated.
For assay [8] the target is unchanged. Put plainly: CD28 binding affinity of the scFv arm; method not stated.
For assay [9], the target named is T3, human CD28 on the surface of human PBMCs / T cells (human, UniProt P10747 19-220).
T3 construct: whole, on cells; Endogenous CD28 on human PBMCs (flow cytometry) and on T cells (functional assays); also called cell-surface CD28
Description: flow cytometry on human PBMCs, 1 h at 4 C, detected with Alexa Fluor 647 anti-human IgG Fc secondary.
Description: Binding of the phage-derived bivalent mAbs to cell-surface CD28 was investigated.

Positions count from the first letter of the chain named.

One may read the EC50 (read off the curve) as the concentration giving half of the maximal effect. Low readings indicate a more potent agent, high ones a less potent agent.

B1: XENP37902 (bispecific antibody)
heavy: EVQLVQSGAEVKKPGASVKVSCKTSGYTFTEYTIHWVRQAPGQSLEWMGNINPNNGGTTYNQKFQGRVTITVDKSTSTAYMELSSLRSEDTAVYYCAAGWNFDYWGQGTLVTVSSASTKGPSVFPLAPSSKSTSGGTAALGCLVKDYFPEPVTVSWNSGALTSGVHTFPAVLQSSGLYSLSSVVTVPSSSLGTQTYICNVNHKPSDTKVDKKVEPKSCDKTHTCPPCPAPPVAGPSVFLFPPKPKDTLMISRTPEVTCVVVDVKHEDPEVKFNWYVDGVEVHNAKTKPREEEYNSTYRVVSVLTVLHQDWLNGKEYKCKVSNKALPAPIEKTISKAKGQPREPQVYTLPPSREEMTKNQVSLTCDVSGFYPSDIAVEWESDGQPENNYKTTPPVLDSDGSFFLYSKLTVDKSRWEQGDVFSCSVMHEALHNHYTQKSLSLSPGK
scFv-Fc: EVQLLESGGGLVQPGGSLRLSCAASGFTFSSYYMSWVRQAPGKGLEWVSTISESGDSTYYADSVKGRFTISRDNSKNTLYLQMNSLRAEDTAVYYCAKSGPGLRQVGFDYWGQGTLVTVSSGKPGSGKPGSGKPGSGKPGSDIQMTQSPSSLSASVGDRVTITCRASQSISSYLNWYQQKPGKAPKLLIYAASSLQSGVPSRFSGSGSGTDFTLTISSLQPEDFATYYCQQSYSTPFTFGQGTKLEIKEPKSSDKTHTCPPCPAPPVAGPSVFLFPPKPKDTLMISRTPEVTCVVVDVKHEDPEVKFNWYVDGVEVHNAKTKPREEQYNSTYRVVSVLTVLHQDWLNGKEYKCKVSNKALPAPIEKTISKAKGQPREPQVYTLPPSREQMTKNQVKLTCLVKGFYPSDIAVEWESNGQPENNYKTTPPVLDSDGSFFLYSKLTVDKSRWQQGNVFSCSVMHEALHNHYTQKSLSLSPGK
light: DIVMTQSPDSLAVSLGERATLSCRASQDVGTAVDWYQQKPDQSPKLLIYWASTRHTGVPDRFTGSGSGTDFTLTISSLQAEDVAVYFCQQYNSYPLTFGAGTKVEIKRTVAAPSVFIFPPSDEQLKSGTASVVCLLNNFYPREAKVQWKVDNALQSGNSQESVTEQDSKDSTYSLSSTLTLSKADYEKHKVYACEVTHQGLSSPVTKSFNRGEC
notes: 1+1 Fab-scFv-Fc format; also called prototype PSMA x CD28 bsAb; 1A7_H1.14_L1
Regarding B1, in assay [1], the Kd was determined as 230 nM.

B2: XENP37903 (bispecific antibody)
heavy: B1 heavy
scFv-Fc: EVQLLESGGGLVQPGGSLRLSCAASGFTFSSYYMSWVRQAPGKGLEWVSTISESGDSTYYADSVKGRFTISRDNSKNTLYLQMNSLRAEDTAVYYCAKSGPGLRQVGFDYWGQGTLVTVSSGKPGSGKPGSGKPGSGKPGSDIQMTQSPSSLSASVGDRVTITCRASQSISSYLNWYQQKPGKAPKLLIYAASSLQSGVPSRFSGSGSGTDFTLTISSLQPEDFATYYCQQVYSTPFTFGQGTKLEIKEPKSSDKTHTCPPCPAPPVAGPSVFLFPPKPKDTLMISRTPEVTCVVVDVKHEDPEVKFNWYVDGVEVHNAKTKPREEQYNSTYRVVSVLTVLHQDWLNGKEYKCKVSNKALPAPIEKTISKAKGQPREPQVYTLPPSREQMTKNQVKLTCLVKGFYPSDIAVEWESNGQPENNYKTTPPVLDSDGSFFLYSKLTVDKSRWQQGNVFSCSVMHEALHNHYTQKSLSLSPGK
light: B1 light
notes: 1+1 Fab-scFv-Fc format; also called prototype PSMA x CD28 bsAb; 1A7_H1.14_L1.71
Turning to B2, the Kd in [1] stood at 37 nM.

B3: XENP38934 PSMA (F02) x CD28 (180nM) (bispecific antibody)
heavy: EVQLLESGPGLVKPSETLSLTCTVSGGSIISYYWSWIRQPAGKGLEWIGRIYSSGSTNYNPSLKSRVTMSVDTSKNQFSLKLSSVTAADTAVYYCAKVGVWPGAFDIWGQGTMVTVSSASTKGPSVFPLAPSSKSTSGGTAALGCLVKDYFPEPVTVSWNSGALTSGVHTFPAVLQSSGLYSLSSVVTVPSSSLGTQTYICNVNHKPSDTKVDKKVEPKSCDKTHTCPPCPAPPVAGPSVFLFPPKPKDTLMISRTPEVTCVVVDVKHEDPEVKFNWYVDGVEVHNAKTKPREEEYNSTYRVVSVLTVLHQDWLNGKEYKCKVSNKALPAPIEKTISKAKGQPREPQVYTLPPSREEMTKNQVSLTCDVSGFYPSDIAVEWESDGQPENNYKTTPPVLDSDGSFFLYSKLTVDKSRWEQGDVFSCSVMHEALHNHYTQKSLSLSPGK
scFv-Fc: not shown
light: not shown
notes: copies: 1 + 1 + 1
As for B3, in assay [2], the binding result is “binds”.

B4: XENP28428 (antibody, V domains shown)
VH: EVQLLESGGGLVQPGGSLRLSCAASGFTFSSYAMSWVRQAPGKGLEWVSTISGSGDSTYYADSVKGRFTISRDNSKNTLYLQMNSLRAEDTAVYYCAKSGPGLRQVGFDYWGQGTLVTVSS
VL: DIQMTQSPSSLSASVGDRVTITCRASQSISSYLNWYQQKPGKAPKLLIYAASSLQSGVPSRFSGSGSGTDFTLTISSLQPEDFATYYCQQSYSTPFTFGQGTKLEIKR
notes: Bivalent IgG1 mAb with Fc gamma R ablation variants, made in HEK293E; also called anti-CD28 mAb based on clone 1A7; parental anti-CD28 mAb 1A7; copies: 2 + 2
Turning to B4, in assay [3], the Kd stood at 14.5 nM.

B5: PSMA x CD28 bsAb with A10 PSMA binding domain and 1A7_H1_L1.71 CD28 binding domain (Platform X) (bispecific antibody)
heavy: not shown
scFv-Fc: not shown
light: SYELMQPPSVSVSPGQTARITCSGDALPKQYAYWYQQKPGQAPVLVIYKDSERPSGIPVRFSGSSSGTTVTLTITGVQAEDEADYYCQSADSSGTYVFGTGTKVTVLGQPKAAPSVTLFPPSSEELQANKATLVCLISDFYPGAVTVAWKADSSPVKAGVETTTPSKQSNNKYAASSYLSLTPEQWKSHRSYSCQVTHEGSTVEKTVAPTECS
Regarding B5, the 50% effective concentration (EC50 (read off the curve)) in assay [4] is roughly 0.06 mg/L.

B6: XENP39233 PSMA (A10v2) x CD28 (96 nM) (bispecific antibody)
heavy: not shown
scFv-Fc: not shown
light: B5 light
notes: Member of group m19
Take B6: the “EC50 (read off the curve)” value in assay [5] is roughly 2 nM.

B7: C28PB318.002 PSMA (A10v2) x CD28 (96 nM) (bispecific antibody)
scFv-Fc: not shown
heavy: not shown
light: B5 light
Regarding B7, in [5], the “EC50 (read off the curve)” value was roughly 2 nM.

B8: C28PB330.002 PSMA (A10v2) x CD28 (180 nM) (bispecific antibody)
first monomer: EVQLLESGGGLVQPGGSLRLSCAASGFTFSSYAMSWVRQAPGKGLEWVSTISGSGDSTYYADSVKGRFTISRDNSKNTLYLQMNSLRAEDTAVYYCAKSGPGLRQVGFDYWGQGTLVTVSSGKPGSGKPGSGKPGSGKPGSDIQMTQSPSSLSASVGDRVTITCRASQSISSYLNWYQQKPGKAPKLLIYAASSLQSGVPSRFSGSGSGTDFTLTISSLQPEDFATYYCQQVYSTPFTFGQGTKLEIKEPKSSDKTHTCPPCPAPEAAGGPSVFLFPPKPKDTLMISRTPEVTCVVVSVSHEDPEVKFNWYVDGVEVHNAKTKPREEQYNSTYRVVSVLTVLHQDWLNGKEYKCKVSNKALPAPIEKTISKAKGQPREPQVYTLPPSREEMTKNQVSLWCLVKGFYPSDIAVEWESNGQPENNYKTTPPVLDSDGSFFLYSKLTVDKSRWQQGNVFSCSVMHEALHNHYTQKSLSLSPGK
second monomer: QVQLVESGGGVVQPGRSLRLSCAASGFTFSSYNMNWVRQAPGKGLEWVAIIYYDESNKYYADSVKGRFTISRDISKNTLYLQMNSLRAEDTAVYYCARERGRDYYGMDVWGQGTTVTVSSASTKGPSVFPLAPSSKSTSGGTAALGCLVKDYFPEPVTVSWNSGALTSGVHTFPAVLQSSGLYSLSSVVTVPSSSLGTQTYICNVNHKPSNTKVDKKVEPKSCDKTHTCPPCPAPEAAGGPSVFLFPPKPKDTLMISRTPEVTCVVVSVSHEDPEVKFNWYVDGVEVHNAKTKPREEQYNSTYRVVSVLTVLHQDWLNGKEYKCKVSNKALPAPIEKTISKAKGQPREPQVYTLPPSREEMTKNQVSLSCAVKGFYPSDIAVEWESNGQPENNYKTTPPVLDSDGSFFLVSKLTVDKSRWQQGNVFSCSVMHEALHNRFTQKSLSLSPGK
light chain: B5 light
As for B8, the 50% effective concentration (EC50 (read off the curve)) in assay [5] is roughly 3 nM.

B9: XENP40470 (bispecific antibody)
heavy: not shown
scFv-Fc: not shown
light: B5 light
notes: Assigned to the 600 nM domain by elimination, because XENP39231 is told to be 1000 nM
For B9, in assay [6], the Kd stood at 600 nM.

B10: C28PB294.002 PSMA (A10v2) x CD28 (37 nM) (bispecific antibody)
scFv-Fc: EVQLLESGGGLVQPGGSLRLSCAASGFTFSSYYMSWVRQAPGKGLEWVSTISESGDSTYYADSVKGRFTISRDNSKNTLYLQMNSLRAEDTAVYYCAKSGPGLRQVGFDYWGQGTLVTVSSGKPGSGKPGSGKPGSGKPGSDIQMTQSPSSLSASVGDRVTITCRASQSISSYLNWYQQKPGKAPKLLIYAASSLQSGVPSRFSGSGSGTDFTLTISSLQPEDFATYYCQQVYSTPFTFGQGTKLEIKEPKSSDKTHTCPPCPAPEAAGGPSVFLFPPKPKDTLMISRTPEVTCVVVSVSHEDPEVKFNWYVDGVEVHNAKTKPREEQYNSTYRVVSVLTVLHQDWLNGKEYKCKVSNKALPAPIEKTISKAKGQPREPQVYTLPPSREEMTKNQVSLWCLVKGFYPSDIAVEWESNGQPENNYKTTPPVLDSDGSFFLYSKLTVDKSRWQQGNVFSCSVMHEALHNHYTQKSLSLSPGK
heavy: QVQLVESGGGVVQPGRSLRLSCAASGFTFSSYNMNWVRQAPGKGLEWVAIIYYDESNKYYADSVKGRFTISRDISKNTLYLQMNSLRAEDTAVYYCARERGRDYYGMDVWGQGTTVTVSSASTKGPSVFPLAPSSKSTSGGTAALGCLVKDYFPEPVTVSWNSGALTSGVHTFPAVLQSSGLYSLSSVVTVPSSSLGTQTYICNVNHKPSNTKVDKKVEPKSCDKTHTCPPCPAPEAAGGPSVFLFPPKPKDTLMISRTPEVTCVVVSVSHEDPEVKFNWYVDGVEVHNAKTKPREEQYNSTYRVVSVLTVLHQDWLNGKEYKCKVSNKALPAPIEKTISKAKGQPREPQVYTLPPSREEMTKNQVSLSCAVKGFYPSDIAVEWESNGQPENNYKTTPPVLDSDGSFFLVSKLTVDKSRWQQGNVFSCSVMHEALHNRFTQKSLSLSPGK
light: B5 light
Regarding B10, in assay [5], the “EC50 (read off the curve)” value was roughly 3 nM.

B11: XENP38936 (bispecific antibody)
heavy: not shown
scFv-Fc: not shown
light: B5 light
notes: also called PSMA x CD28 180 nM
On to B11, for which the 50% effective concentration (EC50 (read off the curve)) in assay [5] is roughly 2 nM. Also, the Kd in assay [7] was found to be 180 nM.

B12: XENP39231 (bispecific antibody)
heavy: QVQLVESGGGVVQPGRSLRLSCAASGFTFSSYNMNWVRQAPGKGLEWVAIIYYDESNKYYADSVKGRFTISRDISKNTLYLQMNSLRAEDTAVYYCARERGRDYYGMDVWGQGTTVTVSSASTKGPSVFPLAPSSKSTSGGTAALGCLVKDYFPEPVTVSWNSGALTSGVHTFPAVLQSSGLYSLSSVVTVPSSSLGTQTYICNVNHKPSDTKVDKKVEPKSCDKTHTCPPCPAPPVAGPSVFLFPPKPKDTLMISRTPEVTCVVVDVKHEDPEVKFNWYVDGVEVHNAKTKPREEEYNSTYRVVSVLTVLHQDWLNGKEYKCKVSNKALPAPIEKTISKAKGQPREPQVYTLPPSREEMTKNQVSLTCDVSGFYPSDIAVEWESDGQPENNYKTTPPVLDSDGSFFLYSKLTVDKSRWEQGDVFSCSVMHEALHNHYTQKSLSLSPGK
scFv-Fc: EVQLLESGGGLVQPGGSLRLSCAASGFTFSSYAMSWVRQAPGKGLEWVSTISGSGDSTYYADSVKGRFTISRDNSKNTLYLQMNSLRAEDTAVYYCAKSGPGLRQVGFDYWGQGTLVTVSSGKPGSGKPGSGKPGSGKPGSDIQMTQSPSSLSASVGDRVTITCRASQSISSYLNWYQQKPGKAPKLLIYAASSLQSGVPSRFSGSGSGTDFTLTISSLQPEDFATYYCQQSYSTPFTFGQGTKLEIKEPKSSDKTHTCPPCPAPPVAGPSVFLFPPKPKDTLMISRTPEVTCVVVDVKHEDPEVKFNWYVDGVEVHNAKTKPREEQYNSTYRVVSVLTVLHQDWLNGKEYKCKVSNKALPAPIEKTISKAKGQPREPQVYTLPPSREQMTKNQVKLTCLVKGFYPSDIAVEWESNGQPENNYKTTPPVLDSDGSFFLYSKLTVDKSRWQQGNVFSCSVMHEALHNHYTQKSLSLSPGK
light: B5 light
notes: also called PSMA x CD28 1 uM
B12: the Kd in [8] was 1000 nM.

B13: XENP39234 PSMA (A10v2) x CD28 (37 nM) (bispecific antibody)
heavy: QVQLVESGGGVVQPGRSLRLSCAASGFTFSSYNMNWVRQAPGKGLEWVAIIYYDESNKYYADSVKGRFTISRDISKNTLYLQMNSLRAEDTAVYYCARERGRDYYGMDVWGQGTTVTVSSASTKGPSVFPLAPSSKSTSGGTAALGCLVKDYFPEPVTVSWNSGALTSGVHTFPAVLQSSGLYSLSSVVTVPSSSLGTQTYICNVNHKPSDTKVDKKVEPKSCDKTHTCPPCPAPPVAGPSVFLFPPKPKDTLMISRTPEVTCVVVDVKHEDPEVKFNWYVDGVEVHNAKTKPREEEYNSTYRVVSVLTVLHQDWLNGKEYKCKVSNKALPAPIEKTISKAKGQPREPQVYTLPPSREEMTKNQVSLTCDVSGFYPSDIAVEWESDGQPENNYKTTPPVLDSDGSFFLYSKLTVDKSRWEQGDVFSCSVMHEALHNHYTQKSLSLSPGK
scFv-Fc: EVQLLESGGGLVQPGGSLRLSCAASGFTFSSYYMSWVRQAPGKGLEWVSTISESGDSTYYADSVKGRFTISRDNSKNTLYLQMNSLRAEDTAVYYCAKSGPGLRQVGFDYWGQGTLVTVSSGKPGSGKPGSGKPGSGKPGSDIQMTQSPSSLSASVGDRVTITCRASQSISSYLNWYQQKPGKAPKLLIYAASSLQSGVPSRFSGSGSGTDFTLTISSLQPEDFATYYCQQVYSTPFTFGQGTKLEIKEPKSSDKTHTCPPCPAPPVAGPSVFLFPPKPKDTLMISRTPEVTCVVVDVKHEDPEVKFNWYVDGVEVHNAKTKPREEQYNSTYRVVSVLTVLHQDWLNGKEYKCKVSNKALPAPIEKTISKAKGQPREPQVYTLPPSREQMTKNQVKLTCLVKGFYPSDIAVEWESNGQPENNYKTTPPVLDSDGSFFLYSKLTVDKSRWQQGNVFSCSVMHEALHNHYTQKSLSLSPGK
light: B5 light
notes: Member of group m19
Consider B13, for which the “EC50 (read off the curve)” value in assay [5] is roughly 3 nM.

B14: PSMA x CD28 bsAb with A11 PSMA binding domain and 1A7_H1_L1.71 CD28 binding domain (Platform X) (bispecific antibody)
heavy: QVQLQESGGDVVQPGRSLRLSCAASGFSFSGYGLHWVRQAPGRGLEWVTLISYDGSNKYYADSVKGRFTISRDNSKNTLYLQMNSLRAEDTAVYYCAKTTVSDPYYYGMDVWGQGTTVTVSSASTKGPSVFPLAPSSKSTSGGTAALGCLVKDYFPEPVTVSWNSGALTSGVHTFPAVLQSSGLYSLSSVVTVPSSSLGTQTYICNVNHKPSDTKVDKKVEPKSCDKTHTCPPCPAPPVAGPSVFLFPPKPKDTLMISRTPEVTCVVVDVKHEDPEVKFNWYVDGVEVHNAKTKPREEEYNSTYRVVSVLTVLHQDWLNGKEYKCKVSNKALPAPIEKTISKAKGQPREPQVYTLPPSREEMTKNQVSLTCDVSGFYPSDIAVEWESDGQPENNYKTTPPVLDSDGSFFLYSKLTVDKSRWEQGDVFSCSVMHEALHNHYTQKSLSLSPGK
scFv-Fc: not shown
light: SYELTQPPSVSVAPGQTARITCGGNNIGSKSVHWYQQKPGQAPVLVVYDDSDRPSGIPERFSGTNSGNTATLTISRAEAGDEADYYCQVWDSSSDHVVFGGGTKLTVLGQPKAAPSVTLFPPSSEELQANKATLVCLISDFYPGAVTVAWKADSSPVKAGVETTTPSKQSNNKYAASSYLSLTPEQWKSHRSYSCQVTHEGSTVEKTVAPTECS
Turning to B14, in [2], the binding result is “binds”.

B15: XENP38938 PSMA (F07) x CD28 (180nM) (bispecific antibody)
heavy: not shown
scFv-Fc: not shown
light: B14 light with T64S, A77V, S94T
notes: copies: 1 + 1 + 1
Regarding B15, the binding result in [2] is given as “binds”.

B16: PSMA x CD28 bsAb with D01v2 PSMA binding domain and 1A7_H1_L1.71 CD28 binding domain (Platform X) (bispecific antibody)
heavy: EVQLVESGGDLVQPGGSLRLSCAASGFTFNNYNMNWVRQAPGKGLEWVSHISTSSSNKYYADSVKGRFSISRDIAKNSMYLQMNSLRDEDTAVYYCAREGVGADYGDYYYYGMDVWGQGTTVTVSSASTKGPSVFPLAPSSKSTSGGTAALGCLVKDYFPEPVTVSWNSGALTSGVHTFPAVLQSSGLYSLSSVVTVPSSSLGTQTYICNVNHKPSDTKVDKKVEPKSCDKTHTCPPCPAPPVAGPSVFLFPPKPKDTLMISRTPEVTCVVVDVKHEDPEVKFNWYVDGVEVHNAKTKPREEEYNSTYRVVSVLTVLHQDWLNGKEYKCKVSNKALPAPIEKTISKAKGQPREPQVYTLPPSREEMTKNQVSLTCDVSGFYPSDIAVEWESDGQPENNYKTTPPVLDSDGSFFLYSKLTVDKSRWEQGDVFSCSVMHEALHNHYTQKSLSLSPGK
scFv-Fc: not shown
light: QSVLTQPASVSGSPGQSITISCTGTSSDVGGYNYVSWYQQHPGKAPKLMIYEVSNRPSGVSNRFSGSKSGNTASLTISGLQAEDEADYYCSSYTSSYTYVFGTGTKLTVLGQPKAAPSVTLFPPSSEELQANKATLVCLISDFYPGAVTVAWKADSSPVKAGVETTTPSKQSNNKYAASSYLSLTPEQWKSHRSYSCQVTHEGSTVEKTVAPTECS
notes: D01v2 is D01 with the degradation liabilities removed
As to B16, in [2], the binding result was “binds”.

B17: PSMA x CD28 bsAb with D01 PSMA binding domain and 1A7_H1_L1.71 CD28 binding domain (Platform X) (bispecific antibody)
heavy: B16 heavy with E99D
scFv-Fc: not shown
light: B16 light
For the molecule B17, the binding result in [2] is recorded as “binds”.

B18: XENP27181 (antibody, V domains shown)
VH: QVQLQESGPGLVKPSETLSLTCAVSGFSLTSYGVHWIRQPPGKGLEWLGVIWPGGGTNFNSALMSRLTISEDTSKNQVSLKLSSVTAADTAVYYCARDRAYGNYLYAMDYWGQGTLVTVSS
VL: DIQMTQSPSSLSASVGDRVTITCRASESVEYYVTSLMQWYQQKPGKAPKLLIYAASNVDSGVPSRFSGSGSGTDFTLTISSLQPEDIATYYCQQSRKVPFTFGGGTKVEIKR
notes: Bivalent anti-CD28 mAb; also called HuTN228; prior art anti-CD28 mAb HuTN228; copies: 2 + 2
On to B18, for which the binding result in assay [9] is “binds”.
